Earlier results as cited in PMC2702134.

Target: Glu50 (UniProt position 50, LEWIGEINPDS)

In the case of “Catalytic antibody 34E4 (Kemp eliminase)”, the pKa is listed as 6.4.
